Measurements published in US20250144205A1, “COMPOSITIONS AND METHODS FOR TREATING INFECTIOUS DISEASES” (priority 2022, published 2025).

B1: M9^FL: recombinant full length MEGF9 (multiple EGF-like-domains-9); full-length human MEGF9 is SEQ ID NO: 1 (protein, listed as Homo sapiens)
chain: MNGGAERAMRSLPSLGGLALLCCAAAAAAAAVASAASAGNVTGGGGAAGQVDASPGPGLRGEPSHPFPRATAPTAQAPRTGPPRATVHRPLAATSPAQSPETTPLWATAGPSSTTFQAPLGPSPTTPPAAERTSTTSQAPTRPAPTTLSTTTGPAPTTPVATTVPAPTTPRTPTPDLPSSSNSSVLPTPPATEAPSSPPPEYVCNCSVVGSLNVNRCNQTTGQCECRPGYQGLHCETCKEGFYLNYTSGLCQPCDCSPHGALSIPCNSSGKCQCKVGVIGSICDRCQDGYYGFSKNGCLPCQCNNRSASCDALTGACLNCQENSKGNHCEECKEGFYQSPDATKECLRCPCSAVTSTGSCSIKSSELEPECDQCKDGYIGPNCNKCENGYYNFDSICRKCQCHGHVDPVKTPKICKPESGECINCLHNTTGFWCENCLEGYVHDLEGNCIKKEVILPTPEGSTILVSNASLTTSVPTPVINSTFTPTTLQTIFSVSTSENSTSALADVSWTQFNIIILTVIIIVVVLLMGFVGAVYMYREYQNRKLNAPFWTIELKEDNISFSSYHDSIPNADVSGLLEDDGNEVAPNGQLTLTTPIHNYKA
B2: M^9ECD: extracellular domain (ECD) fragment of recombinant M9 (MEGF9); ECD of MEGF9 given as SEQ ID NO: 102 (protein, listed as Homo sapiens)
chain: MGWSCIILFLVATATGVHSAAVASAASAGNVTGGGGAAGQVDASPGPGLRGEPSHPFPRATAPTAQAPRTGPPRATVHRPLAATSPAQSPETTPLWATAGPSSTTFQAPLGPSPTTPPAAERTSTTSQAPTRPAPTTLSTTTGPAPTTPVATTVPAPTTPRTPTPDLPSSSNSSVLPTPPATEAPSSPPPGHQWPVAKMPQKYLGKYACESNLKSKYLPLTQPVMNLRVSEAVKTEYVCNCSVVGSLNVNRCNQTTGQCECRPGYQGLHCETCKEGFYLNYTSGLCQPCDCSPHGALSIPCNSSGKCQCKVGVIGSICDRCQDGYYGFSKNGCLPCQCNNRSASCDALTGACLNCQENSKGNHCEECKEGFYQSPDATKECLRCPCSAVTSTGSCSIKSSELEPECDQCKDGYIGPNCNKCENGYYNFDSICRKCQCHGHVDPVKTPKICKPESGECINCLHNTTGFWCENCLEGYVHDLEGNCIKKEVILPTPEGSTILVSNASLTTSVPTPVINSTFTPTTLQTIFSVSTSENSTSALADVSWTQFN
B3: U5a^FL: Recombinant full-length U5a protein (uncoordinated receptor 5A); full-length human UNC5A is SEQ ID NO: 5 (protein, listed as Homo sapiens)
chain: MAVRPGLWPALLGIVLAAWLRGSGAQQSATVANPVPGANPDLLPHFLVEPEDVYIVKNKPVLLVCKAVPATQIFFKCNGEWVRQVDHVIERSTDGSSGLPTMEVRINVSRQQVEKVFGLEEYWCQCVAWSSSGTTKSQKAYIRIAYLRKNFEQEPLAKEVSLEQGIVLPCRPPEGIPPAEVEWLRNEDLVDPSLDPNVYITREHSLVVRQARLADTANYTCVAKNIVARRRSASAAVIVYVDGSWSPWSKWSACGLDCTHWRSRECSDPAPRNGGEECQGTDLDTRNCTSDLCVHTASGPEDVALYVGLIAVAVCLVLLLLVLILVYCRKKEGLDSDVADSSILTSGFQPVSIKPSKADNPHLLTIQPDLSTTTTTYQGSLCPRQDGPSPKFQLTNGHLLSPLGGGRHTLHHSSPTSEAEEFVSRLSTQNYFRSLPRGTSNMTYGTFNFLGGRLMIPNTGISLLIPPDAIPRGKIYEIYLTLHKPEDVRLPLAGCQTLLSPIVSCGPPGVLLTRPVILAMDHCGEPSPDSWSLRLKKQSCEGSWEDVLHLGEEAPSHLYYCQLEASACYVFTEQLGRFALVGEALSVAAAKRLKLLLFAPVACTSLEYNIRVYCLHDTHDALKEVVQLEKQLGGQLIQEPRVLHFKDSYHNLRLSIHDVPSSLWKSKLLVSYQEIPFYHIWNGTQRYLHCTFTLERVSPSTSDLACKLWVWQVEGDGQSFSINFNITKDTRFAELLALESEAGVPALVGPSAFKIPFLIRQKIISSLDPPCRRGADWRTLAQKLHLDSHLSFFASKPSPTAMILNLWEARHFPNGNLSQLAAAVAGLGQPDAGLFTVSEAEC
B4: U5a^mAb: U5a^ECD-specific monoclonal antibody, the 17C9 1 anti-U5a antibody comprising the sequences of SEQ ID NOs. 204 and 211 (antibody)
heavy: QVQLQQPGAELVKPGASVKMSCKASGYTFTSYWITWVKQRPGQGLEWIGDIYPGSGSTTYNEKFKSKATLTVDTSSSTAYMQLSSLTSEDSAVYYCARRHYGSSSAWFAYWGQGTLVTVSAAKTTPPSVYPLAPGSAAQTNSMVTLGCLVKGYFPEPVTVTWNSGSLSSGVHTFPAVLQSDLYTLSSSVTVPSSTWPSQTVTCNVAHPASSTKVDKKIVPRDCGCKPCICTVPEVSSVFIFPPKPKDVLTITLTPKVTCVVVDISKDDPEVQFSWFVDDVEVHTAQTKPREEQINSTFRSVSELPIMHQDWLNGKEFKCRVNSAAFPAPIEKTISKTKGRPKAPQVYTIPPPKEQMAKDKVSLTCMITNFFPEDITVEWQWNGQPAENYKNTQPIMDTDGSYFVYSKLNVQKSNWEAGNTFTCSVLHEGLHNHHTEKSLSHSPGK
light: DIQMTQTTSSLSASLGDRVTISCSASQGIRNYLNWYQQKPDGTVKLLIYYTSSLHSGVPSRFSGSGSGTDYSLTISNLEPEDIATYYCQQYSKLPFTFGSGTKLEIKRADAAPTVSIFPPSSEQLTSGGASVVCFLNNFYPKDINVKWKIDGSERQNGVLNSWTDQDSKDSTYSMSSTLTLTKDEYERHNSYTCEATHKTSTSPIVKSFNRNEC

Columns and labels:
rSARS-CoV-2/mCherry-Nluc = type: in vivo, K18 hACE2 transgenic mice; conditions: for virus titration in lungs (viral titers by plaque assay): 2.5 mg/kg i.p. once daily, compared to the mock groups, FIG. 8A; for body weight and survival: mouse, in vivo
[1] = tested on: TSE-induced lung injury (TSE-LI); test: chronic tobacco smoke exposure induced lung injury (TSE-LI) in wild-type mice; type: in vivo; conditions: for MUC5AC (M5Ac) expression (lung mRNA by qPCR, IHC) / FOXA2 mRNA (qPCR) / surfactant protein-C (SP-C) mRNA (qPCR): WT mice with TSE-LI, 2.5 mg/kg IP 5 days a week for 4 weeks; for MUC5AC (M5Ac) expression (lung mRNA by qPCR, IHC): FIG. 12A, 12D; for FOXA2 mRNA (qPCR): FIG. 12B; for surfactant protein-C (SP-C) mRNA (qPCR): FIG. 12C; for chronic TS exposure (TSE) induced lung injury (TSE-LI): WT mice, 2.5 mg/kg IP 5 days a week for 4 weeks after 16 weeks TSE
Protocol: Recombinant full-length U5a protein (U5a^FL), extracellular domain of U5a^FL (U5a^ECD) and U5a^ECD-specific monoclonal antibody (U5a^mAb, the 17C9 1 anti-U5a antibody comprising the sequences of SEQ ID NOs. 204 and 211) mitigated chronic TS exposure (TSE) induced lung injury (TSE-LI) in wild-type (WT) mice. WT mice were kept in ambient AIR or exposed to tobacco smoke (TSE) for 4 h/day 5 days a week. After 16 weeks, WT mice with TSE-LI were left untreated (None) or treated with 2.5 mg/kg of U5a^FL, U5a^ECD and U5amAb 5 days a week for 4 weeks by IP injection. Total lung RNA were analyzed for MUC5AC (M5Ac) (FIG. 12A), FOXA2 (FIG. 12B) and surfactant protein-C(SP-C) (FIG. 12C) mRNA by qPCR. Lung sections of mice treated as in FIG. 12A were subjected to IHC analysis for M5Ac (FIG. 12D). We found increased expression of U5a in AECs and ATII cells in lungs of patients with COPD and mice with TSE-LI. […] In addition, increased surfactant protein-C(SP-C) indicates improved survival of ATII cells, which is otherwise reduced due to increased TSE-induced senescence and apoptosis of ATII cells seen in mice with TSE-LI left untreated.

Row | Molecule | virus titration in lungs (viral titers by plaque assay) (rSARS-CoV-2/mCherry-Nluc) | body weight and survival (rSARS-CoV-2/mCherry-Nluc) | MUC5AC (M5Ac) expression (lung mRNA by qPCR, IHC) [1] | FOXA2 mRNA (qPCR) [1] | surfactant protein-C (SP-C) mRNA (qPCR) [1] | chronic TS exposure (TSE) induced lung injury (TSE-LI) [1]
1 | B1 | clear trend of decreased viral titers | remarkable improvement | – | – | – | –
2 | B2 | clear trend of decreased viral titers | remarkable improvement | – | – | – | –
3 | B3 | – | – | significantly inhibits | inducing | increased | mitigated
4 | B4 | – | – | significantly inhibits | inducing | increased | mitigated
